Results reported in patent US20230270894A1 (Regeneron, published 2023).

B1: 89Zr-DFO-mAb1 (anti-LAG3 antibody H4sH15482P conjugated with p-SCN-Bn-DFO and radiolabeled with 89Zr) (antibody, V domains shown)
VH: QVQLVESGGGVVQPGRSLRLSCVASGFTFSSYGMHWVRQAPGKGLEWVAIIWYDGSNKYYADSVKGRFTISRDNSKNTQYLQMNSLRAEDTAVYYCASVATSGDFDYYGMDVWGQGTTVTVSS
VL: EIVLTQSPATLSLSPGERTTLSCRASQRISTYLAWYQQKPGQAPRLLIYDASKRATGIPARFSGSGSGTGFTLTISSLEPEDFAVYYCQQRSNWPLTFGGGTKVEIK

Tests used:
[1] = biological target: human LAG3 (lymphocyte activation gene-3 protein, CD223), expressed on cells (human) (UniProt P18627); test: cell-based or functional assay
[2] = biological target: T1, human LAG3 (lymphocyte activation gene-3 protein, CD223), expressed on cells (human, UniProt P18627 23-525); test: cell-based or functional assay
T1 sequence: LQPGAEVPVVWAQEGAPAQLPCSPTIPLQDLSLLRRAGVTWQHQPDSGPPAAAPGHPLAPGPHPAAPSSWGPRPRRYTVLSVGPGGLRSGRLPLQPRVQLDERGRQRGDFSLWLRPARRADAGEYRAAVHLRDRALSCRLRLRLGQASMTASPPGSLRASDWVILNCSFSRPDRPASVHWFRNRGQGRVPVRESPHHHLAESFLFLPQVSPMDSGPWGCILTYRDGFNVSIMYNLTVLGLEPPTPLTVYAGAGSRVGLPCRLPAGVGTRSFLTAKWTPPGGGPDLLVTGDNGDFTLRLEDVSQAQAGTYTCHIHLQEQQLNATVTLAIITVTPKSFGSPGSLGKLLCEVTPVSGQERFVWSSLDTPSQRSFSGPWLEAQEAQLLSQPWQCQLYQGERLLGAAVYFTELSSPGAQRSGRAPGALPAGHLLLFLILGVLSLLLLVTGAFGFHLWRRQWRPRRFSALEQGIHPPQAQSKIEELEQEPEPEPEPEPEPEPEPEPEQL

| Molecule | ex vivo biodistribution, tumor uptake (AVERAGE % ID/G) in MC38/ova/LAG3 tumors of NCr nude mice, 6 days post-dosing [1] [% ID/g] | Tumor-to-blood ratio (average), Raji/hPBMC tumors, day 6, protein dose 0.03 mg/kg [2] [ratio] | Tumor-to-blood ratio (average), Raji/hPBMC tumors, day 6, protein dose 0.1 mg/kg [2] [ratio] | Tumor-to-blood ratio (average), Raji/hPBMC tumors, day 6, protein dose 0.3 mg/kg [2] [ratio] | Tumor-to-blood ratio (average), Raji/hPBMC tumors, day 6, protein dose 5 mg/kg [2] [ratio] |
| --- | --- | --- | --- | --- | --- |
| 89Zr-DFO-conjugated isotype control antibody | 7.8 |  |  |  |  |
| B1 |  | 9.71 | 5.44 | 3.46 | 1.1 |
